Laboratory results reported in patent US8058228B2, “Leptin peptide antagonists” (Boston Biomedical Research Institute, priority 2004, dated 2011).

Target: T1, OB-R (Homo sapiens, UniProt P48357)
T1 construct: After confirming via Western that the primary EEC and ESC and endometrial cell lines utilized herein had OB-R; endogenous in cells; host or cells: primary human EEC and ESC; Ishikawa (ECACC 9832301) and HES cell lines
T1 sequence (P48357 22-1165): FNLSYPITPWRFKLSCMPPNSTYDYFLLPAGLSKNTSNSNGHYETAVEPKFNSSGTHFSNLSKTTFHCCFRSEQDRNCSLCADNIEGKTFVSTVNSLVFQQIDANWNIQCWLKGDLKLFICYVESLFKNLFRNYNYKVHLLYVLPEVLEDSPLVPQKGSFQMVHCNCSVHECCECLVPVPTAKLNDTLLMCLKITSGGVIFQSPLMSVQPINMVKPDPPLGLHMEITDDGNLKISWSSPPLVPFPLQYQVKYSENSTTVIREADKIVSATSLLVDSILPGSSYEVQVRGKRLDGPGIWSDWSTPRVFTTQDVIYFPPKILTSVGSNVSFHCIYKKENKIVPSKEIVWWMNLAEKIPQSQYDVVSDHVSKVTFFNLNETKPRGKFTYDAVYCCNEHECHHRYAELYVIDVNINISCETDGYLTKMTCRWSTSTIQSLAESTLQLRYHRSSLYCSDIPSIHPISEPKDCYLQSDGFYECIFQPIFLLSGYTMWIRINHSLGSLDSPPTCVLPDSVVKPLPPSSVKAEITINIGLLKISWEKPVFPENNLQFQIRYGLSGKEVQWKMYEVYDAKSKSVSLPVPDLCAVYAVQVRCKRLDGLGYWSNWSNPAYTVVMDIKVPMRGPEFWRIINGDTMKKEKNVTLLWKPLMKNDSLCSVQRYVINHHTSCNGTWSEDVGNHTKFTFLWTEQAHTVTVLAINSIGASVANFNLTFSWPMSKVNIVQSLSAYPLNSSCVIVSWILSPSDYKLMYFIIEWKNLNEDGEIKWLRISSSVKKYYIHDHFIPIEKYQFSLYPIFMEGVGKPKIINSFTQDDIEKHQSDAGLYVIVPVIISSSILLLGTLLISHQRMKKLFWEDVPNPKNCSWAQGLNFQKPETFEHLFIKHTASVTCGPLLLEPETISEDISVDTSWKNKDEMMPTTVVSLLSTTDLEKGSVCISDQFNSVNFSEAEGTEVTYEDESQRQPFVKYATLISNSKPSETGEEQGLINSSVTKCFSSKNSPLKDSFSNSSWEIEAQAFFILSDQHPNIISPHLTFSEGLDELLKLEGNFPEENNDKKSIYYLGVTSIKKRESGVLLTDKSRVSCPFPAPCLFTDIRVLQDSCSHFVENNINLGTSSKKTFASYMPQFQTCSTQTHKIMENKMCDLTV
Assay: IL-1β and IL-1Ra levels in conditioned medium of human endometrial epithelial cells (ELISA)
Type: cell-based
Conditions: EEC, leptin 10 nM, 24 h; for effect on leptin-induced increase in IL-1Ra levels / effect on leptin-induced increase in IL-1β levels: LPA-2 30 μM
Protocol: Primary human endometrial cells (ESC and EEC) were cultured for 5-9 days in DMEM-F12 medium containing 5% fetal bovine serum (FBS), 5 μg/ml insulin, 1% amphopthericin B, 100 μg/ml streptomycin and 100 U/ml penicillin until they were 80% confluent. Two types of endometrial epithelial cell lines, HES (originally derived from a benign proliferative endometrium) and Ishikawa (human endometrial epithelial adenocarcinoma, ECACC 9832301, Wiltshire, England) were cultured under the same conditions described above. The cells were washed twice with 100 mM phosphate saline buffer (PBS), pH 7.2 and cultured for additional 2 days in the same medium but without FBS (basal medium). Cells were washed as described before and cultured in basal medium containing leptin (0, 3, 10 or 62 nM) or IL-1β (0.6, 3 and 10 nM).
The anti-OB-R antibody (10 and 20 μg/ml) and LPA-2, a specific inhibitor of OB-R (3, 120, 300 nM or 30 μM) were used to assess whether leptin-induced effects were regulated primarily by the OB-R. Non-specific species-matched IgGs to the OB-R antibody and a scrambled version of LPA-2 (LPA-2Sc) served as negative controls (Gonzalez and Leavis, Endocrine 21: 185-195 (2003)). Inhibitors of IL-1R were used (monoclonal antibody anti-IL-1R tl and IL-1Ra) to assess whether leptin activated IL-1 induced signaling pathways or just activated similar components responsible for LIF/LIF-R expression. Treatment with the cytokine, inhibitor or the two combined was implemented for 5, 15, 30 and 60 min, and 24 and 48 h. The cells were prepared for Western blot analysis. The conditioned media was collected, lyophilized and stored at −80° C. until analysis for LIF, IL-1β and IL-1Ra by ELISA could be performed. Duplicate wells were run for each treatment and the experiments repeated at least three times with different cell preparations.
Conditioned media from cells cultured under the experimental conditions described above were used to quantify the secretion of LIF, IL-1β and IL-1Ra by ELISA (Quantikine®, R&D Systems). The experiments were replicated three times and standards, controls, and samples were assayed in duplicate. Cytokine concentrations as determined by ELISA were within the range of the standard curve and were expressed in pg/ml/mg protein. The intra- and interassay coefficients of variation were between 5-8% and 8.5-10%, respectively. The lowest detectable concentration of each cytokine by ELISA was LIF (9 pg/ml), IL-1 (0.11 pg/ml) and IL-1Ra (15.6 pg/ml). These concentrations are similar to those reported by the manufacturer. LIF-ELISA is reported by the manufacturer to have a sensitivity of less than 8 pg/ml for both natural and recombinant human LIF and 100% specificity (no significant cross-reactivity or interference with a diversity of human and mouse cytokines and growth factors was observed). The performance characteristics for human IL-1β and IL-1Ra ELISAs reported are: 100% specificity, sensitivity 0.1 pg/ml and 14 pg/ml, respectively.

Row | effect on leptin-induced increase in IL-1Ra levels | effect on leptin-induced increase in IL-1β levels | IL-1Ra levels after leptin | IL-1β levels after leptin | Substance
1 | not affected | not affected | – | – | VAEVLNRSDLIQRISFSLDLNNSKLH [LPA-2Sc, scrambled version of LPA-2, negative control, reference compound]
2 | – | – | elevated levels | elevated levels | leptin: human recombinant leptin (R&D Systems), OB-R ligand used as stimulus
3 | abrogated | abrogated | – | – | SRNVIQISNDLENLRDLLHVLAFSKS [LPA-2, 26 amino acid peptide, residues 70-95 of helix III of the human leptin molecule; leptin peptide antagonist]
